The numbers were not newly measured in article PMC4723247, “Novel α-L-Fucosidases from a Soil Metagenome for Production of Fucosylated Human Milk Oligosaccharides” (PLoS ONE, 2016), which cites them from elsewhere.

B1: AtFUC1;At2g28100: α-1,3/4-L-fucosidase 1 from Arabidopsis thaliana (Uniprot Q8GW72) (protein, UniProt Q8GW72 24-506, looked up)
Alpha-L-fucosidase 1: SSLLKPHPCPILPLPSSQQLQWQLGSMAMFLHFGPNTFTDSEWGTGKANPSIFNPTHLNASQWVQIAKDSGFSRVILTAKHHDGFCLWPSEYTDYSVKSSQWRNGAGDVVAELASAAKEAGIGLGLYLSPWDRHEQCYGKTLEYNEFYLSQMTELLTKYGEIKEVWLDGAKGDGEKDMEYFFDTWFSLIHQLQPKAVIFSDAGPDVRWIGDEAGLAGSTCWSLFNRTNAKIGDTEPSYSQEGDGYGQDWVPAECDVSIRPGWFWHASESPKPAVQLLDIYYNSVGRNCLFLLNVPPNSSGLISEQDIKVLEEFSEMKNSIFSNNLARKAFVNSSSIRGDQSSQFGPKNVLEEGLDKYWAPEENQNEWVLYLEFKDLVSFNVLEIREPIHMGQRIASFHLETRKTGSGEWERVVSGTTVGNKRLLRFLNVVESRSLKLVVDKARTDPLISYLGLYMDKFSGSSRNTTKITITRTLKEEQQLHDL
B2: AlfA: α-L-fucosidase from Dictyostelium discoideum (Uniprot P10901) (protein, UniProt P10901 19-461, looked up)
Alpha-L-fucosidase: QQYGPTWDQINSRPLPGWYDDVKFGIFIHFGIYSVPAFANGGYAEWYWWTLKNPSSDGGATQRYHEKEFGANFTYQDFVSRFDCRLFDANEWASIIEKSGAKYVVLTSKHHEGYTLWNSEQSWNWNSVETGPGIDIVGELTKSVKNMGLHMGLYHSLFEWFNPLYLADAETGKNPTTQVYVDEILMKQLKDIVTTYEPELIWADGDWMQLSNYWKSTEFLSWLYTNSSVKDTVIVNDRWGSECRDKNGGFYTGADHFNPYKLQSHKWENCATIGYSYGYDEYEQATDYQNATELIIDLVTTVACGGNFLLDVGPDAQGTIPNNMVDRLLEIGNWLSINSESIYGSSPWRVQNMTFNIWYTTNTTNGNVYAFVFELPDDGVLILSDPIGNNKTEATLLGLKGEKGVEVSLPIESTKPGITLNIPMVAPQDYPPYVYVFRLTDVE
B3: FucA2;Mgc1314;dJ20N2.5: α-L-fucosidase FucA2 from Homo sapiens (Uniprot Q7Z6V2) (protein, UniProt Q9BTY2 29-467, looked up)
Plasma alpha-L-fucosidase: HSATRFDPTWESLDARQLPAWFDQAKFGIFIHWGVFSVPSFGSEWFWWYWQKEKIPKYVEFMKDNYPPSFKYEDFGPLFTAKFFNANQWADIFQASGAKYIVLTSKHHEGFTLWGSEYSWNWNAIDEGPKRDIVKELEVAIRNRTDLRFGLYYSLFEWFHPLFLEDESSSFHKRQFPVSKTLPELYELVNNYQPEVLWSDGDGGAPDQYWNSTGFLAWLYNESPVRGTVVTNDRWGAGSICKHGGFYTCSDRYNPGHLLPHKWENCMTIDKLSWGYRREAGISDYLTIEELVKQLVETVSCGGNLLMNIGPTLDGTISVVFEERLRQMGSWLKVNGEAIYETHTWRSQNDTVTPDVWYTSKPKEKLVYAIFLKWPTSGQLFLGHPKAILGATEVKLLGHGQPLNWISLEQNGIMVELPQLTIHQMPCKWGWALALTNVI
B4: FucA1;FucA: α-L-fucosidase FucA1 from Rattus norvegicus (Uniprot P17164) (protein, UniProt P17164 29-462, looked up)
Tissue alpha-L-fucosidase: APHHYTPDWPSLDSRPLPRWFDEAKFGLFVHWGVYSVPAWGSEWFWWHWQGEQSSAYVRFMKENYPPGFSYADFAPQFTARFFHPEEWADLFQAAGAKYVVLTAKHHEGFTNWPSAVSWNWNSKDVGPHRDLVGELGAAVRKRNIRYGLYHSLFEWFHPLYLLDKKNGLKTQHFVSTKTMPELYDLVNRYKPDLIWSDGEWECPDSYWNSTEFLAWLYNESPVKDQVVVNDRWGQNCSCRHGGYYNCEDKYRPHSLPDHKWEMCTSVDKASWGYRRDMSMSTIVDENEIIEELVQTISLGGNYLLNIGPNKDGVIVPIFQERLLAVGKWLQINGEAIYASKPWRVQSERNKTVVWYTTKDSAVYATFLHWPEDGVVNLQSPKMTSATKITMLGMEGELHWTQDPLEGVLITLPQLPPGTFPVESAWTLKLTKVN
B5: FUCA1: α-L-fucosidase from Canis lupus familiaris (Uniprot P48300) (protein, UniProt P48300 27-465, looked up)
Tissue alpha-L-fucosidase: LVRAAAPPRRYTPDWQSLDSRPLPDWFDKAKFGVFVHWGEFAVPAWGSEWFWWHWKGEGLPQYEQFMSENYPPGFSYADFGPQFTARFFHPDTWADLFQAAGARYVVLTTKHHEGFTNWPSSVSWNWNSNDVGPHRDLVGELGRALRKRNIRYGLYHSLLEWFHPLYLLDKKNNFKTQFFVRAKTMPELYDLVNRYEPDLIWSDGEWKCPDTYWNSTEFLSWLYNDSPVKDHVVVNDRWGQNCSCHHGGYYNCQDKYKPESLPDLKWEMCTSIDKVSWGYRRNMVMSDVASECEIISELVQTVSLGGNYLLNIGPTKDGLIVPIFQERLLSIGKWLSINGEAIYASKPWRVQLEKNTTSVWYTSRGMTVYAIFLRWPENGVLSLKSPVTTSTTQITMLGIQKDLKWSTEPEGLLIYLPQLSLFTLPVEFGWTIKLTGVE

Details of one data set: method as in earlier work. The conditions noted are these: S2 Table; wrapped lists given only as far as the first printed line; ref http://www.cazy.org/GH29_characterized.html and S2 Table refs 1-18.
Turning to B1, the Reported substrates hydrolyzed is 2-aminobenzamide labeled LNFP II, 3FL, fucose linked α1-4 and the “Reported substrates not hydrolyzed” value was 2-aminobenzamide labeled 2’-FL, pNP-Fuc.
In the case of B2, the Reported substrates hydrolyzed is given as 6- O-alpha-L-fucopyranosyl- N-acetylglucosaminitol and the “Reported substrates not hydrolyzed” value is “Lacto-N-fucopentaitol II”.
For the molecule B3, the Reported substrates hydrolyzed entry was “Hydrolyzes pNP-Fuc, prefers α1-2 but capable of cleaving”.
For the molecule B4, the Reported substrates hydrolyzed entry is “Hydrolyzes pNP-Fuc, α1-2, α1-3, and α1-4 fucosyl linkages”; the “Reported substrates not hydrolyzed” value was “Fucα1- 2GlcNAcβ-p NP”.
With B5, the Reported substrates hydrolyzed was 4- methylumbelliferyl- α- L-fucopyrano side and the “Reported substrates not hydrolyzed” value is 4- methylumbellife ryl β-fucopyranos i de.

The data set is the same for the next values; noted with them: S2 Table; wrapped lists given only as far as the first printed line; ref http://www.cazy.org/GH29_characterized.html and S2 Table refs 1-18; listed as FucA1.
In the case of B5, the Reported substrates hydrolyzed is given as 4- methylumbellife ryl α- L-fucopyranoside, pNP-F uc, 2’ -FL.
